One molecule from paper PMC5137418 (Nucleic Acids Research, 2016) can be followed below.

In this assay the target is His-RNMT (human, UniProt O43148 1-476). The assay can be described thus: pull-down; 2 μg GST or GST-RAM with equimolar His-RNMT and glutathione sepharose; 50 mM Tris–Cl pH 7.5, 250 mM NaCl, 0.03% Brij-35, 1 mM DTT, 4°C, 1 h; Coomassie stain. As to conditions: both partners purified.
Sequence of His-RNMT (O43148 whole entry): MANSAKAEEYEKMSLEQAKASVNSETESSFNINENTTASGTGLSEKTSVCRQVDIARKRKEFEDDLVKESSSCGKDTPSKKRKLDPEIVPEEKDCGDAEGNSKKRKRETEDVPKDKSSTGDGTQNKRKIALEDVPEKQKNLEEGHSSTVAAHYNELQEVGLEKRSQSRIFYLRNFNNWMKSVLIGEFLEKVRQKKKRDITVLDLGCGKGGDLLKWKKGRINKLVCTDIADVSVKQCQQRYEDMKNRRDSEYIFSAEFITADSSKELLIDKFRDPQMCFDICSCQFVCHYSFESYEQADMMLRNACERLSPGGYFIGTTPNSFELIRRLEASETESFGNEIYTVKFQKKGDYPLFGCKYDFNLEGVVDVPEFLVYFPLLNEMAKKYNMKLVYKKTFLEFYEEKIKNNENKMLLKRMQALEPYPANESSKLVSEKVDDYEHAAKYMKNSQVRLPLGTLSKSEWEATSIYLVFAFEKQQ

As to TDTAEAVPKFEEMFASRFTENDKEYQEYLKRPPESPPIVEEWNS (domain or fragment, human, UniProt Q9BTL3 2-45, looked up) [GST-RAM 2–45], the binding result is recorded as “binds”.
